Target: adaptor protein-2 (AP-2)
Experiment: pull-down (IP with AP-2 antibody, western blot densitometry)
Settings: HEK-293 cells transfected with GFP-V0a1 constructs; n=4; parent: est. 1.0; read off a plot

- ratio to parent (arbitrary unit): 0.37
Substance: WT GFP-V0a1 (from UniProt Q93050) C25S
